Results on one substance are retold here after publication PMC11433124.

The experiment has as its target hRTL (Chondrilla australiensis tetramer lectin) (Chondrilla australiensis). Briefly: SEC + other: SDS-PAGE; gel permeation chromatography on Shodex KW 402.5-4F (HPLC, 0.33 mL/min) in 50 mM sodium bicarbonate in saline, 60 kDa; SDS-PAGE under non-reducing conditions after 3 min or 20 min heating at 80 °C, 66 kDa and 18 kDa; subunit mass 15,521.11 Da by MALDI-TOF-MS.

In general, stoichiometry N refers to a count of units in the complex or per binding partner.

For “hRTL (Chondrilla australiensis tetramer lectin) (natural protein)”, the stoichiometry N was found to be 4.
